Our source for the activity (fold luminescence vs controls) values is patent US20090170069.

The series addresses T1, NFluc-Pum2 (pumilio domain) (UniProt Q8TB72).
T1 sequence: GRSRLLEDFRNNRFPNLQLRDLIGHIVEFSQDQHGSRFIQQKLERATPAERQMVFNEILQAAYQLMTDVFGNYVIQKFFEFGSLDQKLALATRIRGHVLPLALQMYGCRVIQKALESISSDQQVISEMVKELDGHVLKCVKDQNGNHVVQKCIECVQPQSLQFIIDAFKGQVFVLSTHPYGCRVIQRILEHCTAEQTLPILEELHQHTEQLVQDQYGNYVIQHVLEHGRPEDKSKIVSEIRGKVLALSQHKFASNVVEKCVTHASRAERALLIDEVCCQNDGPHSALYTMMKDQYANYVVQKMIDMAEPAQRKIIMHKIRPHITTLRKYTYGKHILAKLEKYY
The conditions noted are these: ternary with CFluc-Ago.

In turn, “CAUGGUGUAUAUAGUCUUUUGAUAUAGCGGC / CUAUAUACACCAUGUU [Pum target RNA + Pum1 guide]” gave an activity (fold luminescence vs controls) of 3.
